# Assay results from patent publication US5455329A, “DNA sequences coding for PTH variants, PTH variants, expression vector, bacterial host, use and therapeutic composition” (Gesellschaft fur Biotechnologische Forschung mbH (GBF), priority 1989, dated 1995).
# Columns and labels:
# [1] = test system: embryonal chicken chondrocytes; assay: Increase of DNA synthesis of embryonal chicken chondrocytes; format: cell-based; conditions: for DNA synthesis (%) relative activity: relative to recombinant hPTH (=100), stimulation beyond the base level, chondrocytes; for Effect on stimulation of DNA synthesis (in words, group classification): qualitative, versus wild type PTH
# Procedure: They were also tested for their ability, according to DE-A-37 25 319.0 and DE-A-37 25 320.4, to increase the DNA synthesis of embryonal chicken chondrocytes.
# [2] = test system: adenylate cyclase in isolated membranes of porcine adrenal cortices; assay: Stimulation of adenylate cyclase in isolated membranes, in vitro test according to Mohr and Hesch; format: biochemical; conditions: for Adenylate cyclase (%) relative activity: relative to recombinant hPTH (=100), stimulation beyond the base level; for Effect on adenylate cyclase stimulation (in words, group classification): qualitative, versus wild type PTH
# Procedure: The PTH variants so obtained were tested for their ability to stimulate adenylate cyclase in isolated membranes of porcine adrenal cortices in an in vitro test according to Mohr and Hesch (Biochem. J., 188 (1980) 649-656) .
Molecule,DNA synthesis (%) relative activity [1] [%],Adenylate cyclase (%) relative activity [2] [%],"Effect on stimulation of DNA synthesis (in words, group classification) [1]","Effect on adenylate cyclase stimulation (in words, group classification) [2]"
"rec-hPTH: recombinant human parathyroid hormone wild type, lengthened N-terminally by one proline residue; reference = 100 % [reference compound]",100,100,–,–
"Q29N: hPTH variant Gln(29) -> Asn(29), lengthened N-terminally by one proline (protein, UniProt P01270 32-115, looked up, variant Q29N, Parathyroid hormone N-terminal proline extension, hPTH variant Gln(29) -> Asn(29), lengthened N-terminally by one proline) Parathyroid hormone: SVSEIQLMHNLGKHLNSMERVEWLRKKLNDVHNFVALGAPLAPRDAGSQRPRKKEDNVLVESHEKSLGEADKADVNVLTKAKSQ",95,99,maintain the stimulation,maintain the stimulation
"K13P: hPTH variant Lys(13) -> Pro(13), lengthened N-terminally by one proline (protein, UniProt P01270 32-115, looked up, variant K13P, Parathyroid hormone N-terminal proline extension, hPTH variant Lys(13) -> Pro(13), lengthened N-terminally by one proline) Parathyroid hormone: SVSEIQLMHNLGPHLNSMERVEWLRKKLQDVHNFVALGAPLAPRDAGSQRPRKKEDNVLVESHEKSLGEADKADVNVLTKAKSQ",88,6,increase in DNA synthesis,significant reduction in adenylate cyclase stimulation
"K27L: hPTH variant Lys(27) -> Leu(27), lengthened N-terminally by one proline (protein, UniProt P01270 32-115, looked up, variant K27L, Parathyroid hormone N-terminal proline extension, hPTH variant Lys(27) -> Leu(27), lengthened N-terminally by one proline) Parathyroid hormone: SVSEIQLMHNLGKHLNSMERVEWLRKLLQDVHNFVALGAPLAPRDAGSQRPRKKEDNVLVESHEKSLGEADKADVNVLTKAKSQ",70,35,increase in DNA synthesis,significant reduction in adenylate cyclase stimulation
"E4R, R20E: hPTH variant Glu(4) Arg(20) -> Arg(4), Glu(20), lengthened N-terminally by one proline (protein, UniProt P01270 32-115, looked up, variant E4R R20E, Parathyroid hormone N-terminal proline extension, hPTH variant Glu(4) Arg(20) -> Arg(4), Glu(20), lengthened N-terminally by one proline) Parathyroid hormone: SVSRIQLMHNLGKHLNSMEEVEWLRKKLQDVHNFVALGAPLAPRDAGSQRPRKKEDNVLVESHEKSLGEADKADVNVLTKAKSQ",58,20,increase in DNA synthesis,significant reduction in adenylate cyclase stimulation
"H32R: hPTH variant His(32) -> Arg(32), lengthened N-terminally by one proline (protein, UniProt P01270 32-115, looked up, variant H32R, Parathyroid hormone N-terminal proline extension, hPTH variant His(32) -> Arg(32), lengthened N-terminally by one proline) Parathyroid hormone: SVSEIQLMHNLGKHLNSMERVEWLRKKLQDVRNFVALGAPLAPRDAGSQRPRKKEDNVLVESHEKSLGEADKADVNVLTKAKSQ",36,87,significant reduction in the stimulation of DNA synthesis,substantial retention of the effect on adenylate cyclase
"R20E: hPTH variant Arg(20) -> Glu(20), lengthened N-terminally by one proline (protein, UniProt P01270 32-115, looked up, variant R20E, Parathyroid hormone N-terminal proline extension, hPTH variant Arg(20) -> Glu(20), lengthened N-terminally by one proline) Parathyroid hormone: SVSEIQLMHNLGKHLNSMEEVEWLRKKLQDVHNFVALGAPLAPRDAGSQRPRKKEDNVLVESHEKSLGEADKADVNVLTKAKSQ",0,0,unaffected DNA synthesis,significant reduction in adenylate cyclase stimulation
"H32K: hPTH variant His(32) -> Lys(32), lengthened N-terminally by one proline (protein, UniProt P01270 32-115, looked up, variant H32K, Parathyroid hormone N-terminal proline extension, hPTH variant His(32) -> Lys(32), lengthened N-terminally by one proline) Parathyroid hormone: SVSEIQLMHNLGKHLNSMERVEWLRKKLQDVKNFVALGAPLAPRDAGSQRPRKKEDNVLVESHEKSLGEADKADVNVLTKAKSQ",22,85,significant reduction in the stimulation of DNA synthesis,substantial retention of the effect on adenylate cyclase
"E4R: hPTH variant Glu(4) -> Arg(4), lengthened N-terminally by one proline (protein, UniProt P01270 32-115, looked up, variant E4R, Parathyroid hormone N-terminal proline extension, hPTH variant Glu(4) -> Arg(4), lengthened N-terminally by one proline) Parathyroid hormone: SVSRIQLMHNLGKHLNSMERVEWLRKKLQDVHNFVALGAPLAPRDAGSQRPRKKEDNVLVESHEKSLGEADKADVNVLTKAKSQ",88,47,increase in DNA synthesis,significant reduction in adenylate cyclase stimulation
"K27R: hPTH variant Lys(27) -> Arg(27), lengthened N-terminally by one proline (protein, UniProt P01270 32-115, looked up, variant K27R, Parathyroid hormone N-terminal proline extension, hPTH variant Lys(27) -> Arg(27), lengthened N-terminally by one proline) Parathyroid hormone: SVSEIQLMHNLGKHLNSMERVEWLRKRLQDVHNFVALGAPLAPRDAGSQRPRKKEDNVLVESHEKSLGEADKADVNVLTKAKSQ",81,90,maintain the stimulation,maintain the stimulation
"L11K: hPTH variant Leu(11) -> Lys(11), lengthened N-terminally by one proline (protein, UniProt P01270 32-115, looked up, variant L11K, Parathyroid hormone N-terminal proline extension, hPTH variant Leu(11) -> Lys(11), lengthened N-terminally by one proline) Parathyroid hormone: SVSEIQLMHNKGKHLNSMERVEWLRKKLQDVHNFVALGAPLAPRDAGSQRPRKKEDNVLVESHEKSLGEADKADVNVLTKAKSQ",21,89,reduce that of DNA synthesis,maintain the stimulation of adenylate cyclase
"Q29A: hPTH variant Gln(29) -> Ala(29), lengthened N-terminally by one proline (protein, UniProt P01270 32-115, looked up, variant Q29A, Parathyroid hormone N-terminal proline extension, hPTH variant Gln(29) -> Ala(29), lengthened N-terminally by one proline) Parathyroid hormone: SVSEIQLMHNLGKHLNSMERVEWLRKKLADVHNFVALGAPLAPRDAGSQRPRKKEDNVLVESHEKSLGEADKADVNVLTKAKSQ",8,104,significant reduction in the stimulation of DNA synthesis,substantial retention of the effect on adenylate cyclase
"H32L: hPTH variant His(32) -> Leu(32), lengthened N-terminally by one proline (protein, UniProt P01270 32-115, looked up, variant H32L, Parathyroid hormone N-terminal proline extension, hPTH variant His(32) -> Leu(32), lengthened N-terminally by one proline) Parathyroid hormone: SVSEIQLMHNLGKHLNSMERVEWLRKKLQDVLNFVALGAPLAPRDAGSQRPRKKEDNVLVESHEKSLGEADKADVNVLTKAKSQ",11,93,significant reduction in the stimulation of DNA synthesis,substantial retention of the effect on adenylate cyclase
